Source: article PMC6006248, “CARK1 mediates ABA signaling by phosphorylation of ABA receptors” (Cell Discovery, 2018)

B1: ABI1 (Clade A PP2C) (enzyme)
chain: MEEVSPAIAGPFRPFSETQMDFTGIRLGKGYCNNQYSNQDSENGDLMVSLPETSSCSVSGSHGSESRKVLISRINSPNLNMKESAAADIVVVDISAGDEINGSDITSEKKMISRTESRSLFEFKSVPLYGFTSICGRRPEMEDAVSTIPRFLQSSSGSMLDGRFDPQSAAHFFGVYDGHGGSQVANYCRERMHLALAEEIAKEKPMLCDGDTWLEKWKKALFNSFLRVDSEIESVAPETVGSTSVVAVVFPSHIFVANCGDSRAVLCRGKTALPLSVDHKPDREDEAARIEAAGGKVIQWNGARVFGVLAMSRSIGDRYLKPSIIPDPEVTAVKRVKEDDCLILASDGVWDVMTDEEACEMARKRILLWHKKNAVAGDASLLADERRKEGKDPAAMSAAEYLSKLAIQRGSKDNISVVVVDLKPRRKLKSKPLN

Legend:
[1] = biological target: T1, CARK1-KD (Arabidopsis thaliana, UniProt Q9LUT0); assay: in vitro kinase assay, […] autoradiography; type: biochemical; details: labelled compound; autophosphorylation and phosphorylation of RCAR3/RCAR11
T1 construct: kinase domain, residues 50-353, 6xHis fusion (pET28a), E. coli Rosetta (DE3)
T1 sequence (Q9LUT0 50-353): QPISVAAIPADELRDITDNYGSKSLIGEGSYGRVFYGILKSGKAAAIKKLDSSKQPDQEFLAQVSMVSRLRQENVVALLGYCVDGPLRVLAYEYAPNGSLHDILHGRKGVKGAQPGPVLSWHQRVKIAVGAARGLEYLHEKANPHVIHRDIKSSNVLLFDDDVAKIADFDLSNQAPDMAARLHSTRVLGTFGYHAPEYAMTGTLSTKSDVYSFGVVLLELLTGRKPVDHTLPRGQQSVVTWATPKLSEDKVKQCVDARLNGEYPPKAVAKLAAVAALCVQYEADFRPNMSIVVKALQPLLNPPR

[2] = biological target: T2, RCAR11 (PYR1) with ABI1 (Arabidopsis thaliana, UniProt O49686); assay: in vitro Ser/Thr phosphatase assay of ABI1; type: biochemical; details: read-out is receptor-dependent inhibition of ABI1
T2 construct: recombinant receptor plus ABI1 phosphatase; tags and borders for this assay only in supplement; receptor dimeric; with Protein phosphatase 2C 56
T2 sequence (O49686 1-191): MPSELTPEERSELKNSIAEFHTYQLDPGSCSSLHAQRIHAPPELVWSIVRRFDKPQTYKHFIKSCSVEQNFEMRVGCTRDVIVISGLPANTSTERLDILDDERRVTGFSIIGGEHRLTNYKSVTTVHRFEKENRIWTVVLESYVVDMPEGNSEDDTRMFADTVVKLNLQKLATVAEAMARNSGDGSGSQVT
T2 sequence (P49597 1-434 partner): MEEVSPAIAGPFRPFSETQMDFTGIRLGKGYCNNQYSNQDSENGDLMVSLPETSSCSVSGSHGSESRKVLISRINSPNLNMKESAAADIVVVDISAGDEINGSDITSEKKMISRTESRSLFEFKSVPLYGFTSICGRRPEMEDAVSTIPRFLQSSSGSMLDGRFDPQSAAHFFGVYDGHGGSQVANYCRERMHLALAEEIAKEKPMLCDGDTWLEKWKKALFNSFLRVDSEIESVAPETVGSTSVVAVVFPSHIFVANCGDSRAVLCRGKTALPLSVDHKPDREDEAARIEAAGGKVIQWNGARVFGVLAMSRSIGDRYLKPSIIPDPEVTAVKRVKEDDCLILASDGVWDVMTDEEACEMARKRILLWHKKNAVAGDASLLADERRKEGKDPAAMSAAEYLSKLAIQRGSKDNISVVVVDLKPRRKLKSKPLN

[3] = biological target: T3, RCAR3 (PYL8) with ABI1 (Arabidopsis thaliana, UniProt Q9FGM1); assay: in vitro Ser/Thr phosphatase assay of ABI1; type: biochemical; details: read-out is receptor-dependent inhibition of ABI1
T3 construct: recombinant receptor plus ABI1 phosphatase; tags and borders for this assay only in supplement; receptor monomeric; with Protein phosphatase 2C 56
T3 sequence (Q9FGM1 1-188): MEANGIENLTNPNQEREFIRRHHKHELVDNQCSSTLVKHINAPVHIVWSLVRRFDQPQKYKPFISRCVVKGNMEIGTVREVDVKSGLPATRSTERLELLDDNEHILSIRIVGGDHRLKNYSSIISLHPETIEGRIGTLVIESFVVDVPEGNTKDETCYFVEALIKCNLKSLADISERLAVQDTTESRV
T3 sequence (P49597 1-434 partner): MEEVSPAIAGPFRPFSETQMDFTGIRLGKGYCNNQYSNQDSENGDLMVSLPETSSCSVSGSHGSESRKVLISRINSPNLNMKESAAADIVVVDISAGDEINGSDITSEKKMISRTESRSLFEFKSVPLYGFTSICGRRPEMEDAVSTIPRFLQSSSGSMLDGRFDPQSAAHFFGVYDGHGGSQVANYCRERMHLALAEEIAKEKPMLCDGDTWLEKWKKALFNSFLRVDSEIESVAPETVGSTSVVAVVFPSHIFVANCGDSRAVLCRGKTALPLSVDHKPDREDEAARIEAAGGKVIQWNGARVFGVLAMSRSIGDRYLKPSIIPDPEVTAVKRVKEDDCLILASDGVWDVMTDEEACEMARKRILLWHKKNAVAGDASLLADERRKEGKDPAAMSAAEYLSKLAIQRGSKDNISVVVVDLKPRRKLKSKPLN

[4] = biological target: ABI1 (Clade A PP2C) (Arabidopsis) (UniProt P49597)
[5] = biological target: T4, RCAR3^T77D (phosphor-mimic form of RCAR3) (Arabidopsis, UniProt Q9FGM1 1-188, T77D); assay: SPR
T4 sequence: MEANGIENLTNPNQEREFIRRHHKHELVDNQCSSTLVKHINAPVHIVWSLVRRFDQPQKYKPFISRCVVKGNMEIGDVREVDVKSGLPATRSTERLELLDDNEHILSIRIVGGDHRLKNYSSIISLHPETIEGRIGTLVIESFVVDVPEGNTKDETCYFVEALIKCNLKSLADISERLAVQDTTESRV

[6] = biological target: T5, RCAR3^S85R (interface point mutant) (Arabidopsis, UniProt Q9FGM1 1-188, S85R); assay: SPR
T5 sequence: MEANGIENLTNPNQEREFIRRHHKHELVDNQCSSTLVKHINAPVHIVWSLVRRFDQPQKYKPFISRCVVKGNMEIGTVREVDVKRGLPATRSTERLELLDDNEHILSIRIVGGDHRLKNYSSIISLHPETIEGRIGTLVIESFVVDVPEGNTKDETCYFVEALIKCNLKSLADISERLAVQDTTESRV

[7] = biological target: T6, RCAR3^T77A (Arabidopsis, UniProt Q9FGM1 1-188, T77A); assay: SPR
T6 sequence: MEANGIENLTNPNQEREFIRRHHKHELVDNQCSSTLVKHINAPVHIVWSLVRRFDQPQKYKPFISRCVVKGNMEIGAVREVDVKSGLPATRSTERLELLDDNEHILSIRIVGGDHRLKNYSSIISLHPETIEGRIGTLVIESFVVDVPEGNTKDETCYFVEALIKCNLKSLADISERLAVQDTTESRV

[8] = biological target: T7, ABI1 (Clade A PP2C) (Arabidopsis, UniProt P49597 1-434); assay: SPR; in vitro; who was immobilised and the conditions are not told in the main text (Supplementary Fig. S7A-E); details: both partners purified
T7 construct: Protein phosphatase 2C ABI1, Arabidopsis; source: purified with the similar procedures as described for CARK1-KD
T7 sequence (looked up): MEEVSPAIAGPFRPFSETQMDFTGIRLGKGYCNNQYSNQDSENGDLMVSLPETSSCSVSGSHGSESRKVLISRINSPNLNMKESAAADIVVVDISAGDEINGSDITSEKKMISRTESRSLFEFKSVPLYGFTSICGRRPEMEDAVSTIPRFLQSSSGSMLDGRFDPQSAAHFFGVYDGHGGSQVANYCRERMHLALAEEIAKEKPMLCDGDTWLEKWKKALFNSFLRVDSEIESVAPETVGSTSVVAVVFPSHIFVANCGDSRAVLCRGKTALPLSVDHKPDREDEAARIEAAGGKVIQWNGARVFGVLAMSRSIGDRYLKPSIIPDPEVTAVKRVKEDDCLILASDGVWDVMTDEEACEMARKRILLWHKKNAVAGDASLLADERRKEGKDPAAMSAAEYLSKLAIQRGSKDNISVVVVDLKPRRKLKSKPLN

[9] = biological target: B1; assay: SPR

In the case of Nc1ncnc2c1ncn2[C@@H]1O[C@H](COP(=O)(O)OP(=O)(O)OP(=O)(O)O)[C@@H](O)[C@H]1O [ATP], the “in vitro kinase assay, 32P autoradiography” value [1] is reported as “wild-type CARK1-KD showed strong autophosphorylation activity”.

CC1=CC(=O)CC(C)(C)[C@@]1(O)/C=C/C(C)=C\C(=O)O [ABA] was tested, and the “in vitro Ser/Thr phosphatase assay of ABI1” value [2] was “phosphatase activity of ABI1 was totally abolished by either forms of RCAR3/RCAR11” and the “in vitro Ser/Thr phosphatase assay of ABI1” value [3] was “phosphatase activity of ABI1 was totally abolished by either forms of RCAR3/RCAR11”.

In the case of “RCAR11^T78D (phosphor-mimic form of RCAR11) (from UniProt O49686 1-191) (receptor)”, the phosphatase activity of ABI1 in vitro, without ABA: inhibitory effect [4] is reported as 28%.

For B1, the koff [5] was 0.000867 s⁻¹, the koff [6] was 0.00676 s⁻¹ and the koff [7] was 0.0046 s⁻¹.

B2: wild-type RCAR3 (purified, SPR and phosphatase assay) (receptor, Arabidopsis, UniProt Q9FGM1 1-188, looked up)
chain: MEANGIENLTNPNQEREFIRRHHKHELVDNQCSSTLVKHINAPVHIVWSLVRRFDQPQKYKPFISRCVVKGNMEIGTVREVDVKSGLPATRSTERLELLDDNEHILSIRIVGGDHRLKNYSSIISLHPETIEGRIGTLVIESFVVDVPEGNTKDETCYFVEALIKCNLKSLADISERLAVQDTTESRV
notes: ABA receptor RCAR3 (PYL8), Arabidopsis; a His-tagged RCAR3 is named for the in-gel kinase assay; also called PYL8; source: purified with the similar procedures as described for CARK1-KD
For B2, the Kd [8] was 880 nM and the koff [9] was 0.000822 s⁻¹.
